Source: the domain aggregation screens of Martell et al. (2025)

Experiment: soluble fraction after stress (log2 fold change); higher = more stays soluble; pooled small domains, quantitative proteomics
Conditions: stress: 75 degC
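Also: 20 min heating vs room temperature control held 20 min.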

Going from “HMVINTRHTGFVVDDLERFINFYLGLGLKLISRKVESGEYIDKLVGLKGTKLEWAKLSLPDNSMIEILKYH” to “HMVIREVNDNPVSAEELRLGDRVKVLSLGQNGEIVTLPDEKGELTVQVGILKAKVNLDDIMLI”, the “soluble fraction (log2)” value rises from -0.508 to -0.177.

Compared with “HMVISAKRMQDRRDSILDAAREAFARAGFEGTSIADIARRAGVSDGLVYRYFASKRDLLNAVLTA”, “HMVIVGGDVIVHYVDTEGKKISDDVVKSGNVGEDYSTDQKTILGYRFKEVQGNTSGKFTDKTQVVTYIYT” is higher in “soluble fraction (log2)” value: -1.61 for the first, 0.649 for the second.

Compared with “HMVKEVKVPDVEGLTTEEAIKELKKYGLAYTTKSEENTDIEEGKVIRTEPKKGSTKVKGSTVTIIESSG”, “HMVKFGERVKQLRLSAGMTQEQLAERIWVTKAAISNYELSERNPSPETIIKIAGVFGVTTDYLLGLED” is lower in “soluble fraction (log2)” value: 0.451 for the first, -1.9 for the second.

Going from “HMVKIVWSKEGPYVGTRVRRYFSQGPVDGTVVMYAKPQKGDDVALWRISHDDGDEEDLEEQELRLAID” to “HMVKLQATPSQRKTLDELYVQLKKLEPTAKEDLSLLRRLENSHLVSKQEAQGLISKAIGRVGALAVEQQP”, the “soluble fraction (log2)” value rises from -1.06 to 0.0219.

First: HMVKNTIHVDLKGEVNKPGVYEVEEGTIVNDLITLANGFTKNAYQDNINLSKKLTDEMVIVVSKKGS
Second: HMVKNVVIPDVSNKAPVDASNQLTDLGFEVVTEYKYIASDTIEEGKVVKTSPEIGSKRKYGQKITLYISSG
The “soluble fraction (log2)” value of the first is higher: 0.476 for the first, -1.23 for the second.

Going from “HMVKRAYGEYVNVKLTDADLSKLKADFPADWQERIERLSTYMASTGKTYKNHLATIRNWARRDAERVSA” to “HMVKVSVYPNPAVDRITISGEVKAYAVYDATGKVVMKDTDYRGGAIGVSHLPAGIYIVRTDAGAVTVNK”, the “soluble fraction (log2)” value falls from 0.958 to -0.595.

“HMVLSVRDRMVQILDQVKTGEYKRIEDFFSADEGRTGFVVSFVAILELVKGGLLTITQSKNLAPIYVRLPN” and “HMVLVEEYDTKDSASTFKIGYYARYNTKYGTPSKVGSYADNQRSGIWTFYTDSLKTYFKYNYSTGLIL” are within 0.2 log units of each other in “soluble fraction (log2)” value: -0.0123 for the first, 0.0292 for the second.

Compared with “HMVLVGERRQKILEVVSSGKAVTVEELSRILHVSPSTVRRDLRFLESRGLLYRTHGGAMPPV”, “HMVLVKFEWTPPDARILVDDHPVEARDKEMELPEGTHHVQALAPRGSGYESTVTDIEVRQGMDPVRIAL” is higher in “soluble fraction (log2)” value: -1.95 for the first, -0.292 for the second.

Going from “HMVMRHTVEHDAELLAVLRLMYPASSSTKLRKMLTQGRVLVNDDVVHRAKHGVASGDTVDVIVRQRAE” to “HMVNFKLIGNKIAEARKKVNISQAQLAQRLFISSQAVGKWERGESMPDIITFNRLAEILGVDLNYFSE”, the “soluble fraction (log2)” value falls from -2.21 to -2.53.

“HMVNPDAPAPLYIVNGKETDKNIALAIKPEDVQDVRIIKNTVALQVYGEKGKNGVVIINTKPGV” and “HMVNSADLAAKPFIDLLVSTRQQLREAKQYDLADTIRDELTNHGITIEDKPQGSEWQYEFNPNS” are within 0.2 log units of each other in “soluble fraction (log2)” value: 0.132 for the first, 0.0875 for the second.

Going from “HMVNTYILNNKEYPIEIIRKNNKNTYLRVKEGKIIVTTNYLTSSFTINKLIKDNTSFINKALLKEN” to “HMVNYKEILRLAHEGYSQRQIATNIGNSRNTVSEVLDAAKAANIAWPPEETVTNEQLGAILFPNRH”, the “soluble fraction (log2)” value rises from -0.71 to 0.349.

Going from “HMVNYKEILRLSAEGNSQRQIAAGSGNSRNTVIEVLEAARARGITWPLDEPVTNEQLEAILFPNRY” to “HMVPEETKQFINQLNHGSLSIRMNAANNLEKLGLLAIPEIEAALPKAHGEAAFRLPRLLHALVLRETEYF”, the “soluble fraction (log2)” value rises from -0.072 to 0.185.

Going from “HMVPEMIRDVISKSIRDMGVLPDHMQINERIALIQSLKKQQILGIKGAVAETARQLGISVPTVYRYMKKG” to “HMVPFISVTPTSLSFAKGGESKTVDIEASGAFSVGKVPTGFNLEVVNGRITITADANTGAARNGSVEFILA”, the “soluble fraction (log2)” value rises from -0.946 to 0.222.

Going from “HMVPHTTSMVAEVQERLFNLNYDPGPINGRMDQATITAITRFQRNFSLPQTGQIDEGFLNTLRDARL” to “HMVPLGDLSKNERRAMELAATNGNVTTRALADDAQVTKRTASTTLRRLAKRGLLEWIGKGPSDPGQFYRIP”, the “soluble fraction (log2)” value rises from -0.73 to -0.351.

Compared with “HMVPLTPGELVGTEVRVLWWKEGRGEVIASSRGHQLTLEAHSEDPLRAGSTAVVLEAADDVLVVTS”, “HMVPPELEFLQSLMKIEDISELTAAIENNRDAVTDDFKEMLETVIENISGAPDTDPKLLERLKTIRTVLA” is higher in “soluble fraction (log2)” value: -0.734 for the first, -0.0936 for the second.

Going from “HMVPPVVRTIYGAGGKMTATFLFPGGYEVDAASGAELPGKYRVESISLDQVVLTDKDGNRVPVGFSSVAPT” to “HMVPQEVLPITLIIDGKLIEENLLYAKMTEQVLIQQLDINNIKSIKQILFAGLDSFGNFFYQEKQN”, the “soluble fraction (log2)” value falls from 0.149 to -2.5.

Going from “HMVPTATVGENTSTLPVRQLPGGPVLVVLVRGDIVLPLPGHAFQNGDVWREISTVNGVIGWVPDEFLDY” to “HMVPTVSVDRDDTLRFEGRPVDWDVLKRELGAVAGIDELKIYADAKVSALTVSKIMKSASEAGVLQFILVT”, the “soluble fraction (log2)” value rises from -2.25 to -0.0735.

Compared with “HMVQARDQNIEEGRQLVLRELDRLDLVNESLTDVAADMNMKSVEDMYAAIGAGDLRVGQVVHAVLKRAD”, “HMVQDSEWWRNYQSAHDYFIQNGHLNVLRSDKKNTKLYNWIVGQRSSRWNSQGRINLLNSIGFIWDT” is lower in “soluble fraction (log2)” value: 0.0164 for the first, -3.01 for the second.

Compared with “HMVQISNTDDLYPIVQRIVDANPQSVEDYKNGKAKALGFLVGQMMKETKGKANPSMVNDLIIKAIEE”, “HMVQIVINKEVQTTSQTILRENAGTSSRNIGYVDPNVKLRATLDRNSFYFIPEKKGWIMKSRVKLIEDLS” is lower in “soluble fraction (log2)” value: -0.022 for the first, -3.77 for the second.

With “HMVQMNMLELQEEMQRDRSWIIKHLFQDEYFRRKIAKFSQFPINDSGKYLFHRKSMLKFLNDYAEEIVER” the “soluble fraction (log2)” value was -2.88.
